This is an account of results in publication doi:10.1101/869594 (bioRxiv, 2019).

One may read the stoichiometry N as the number of molecules, sites or subunits per partner or assembly.

This data set deals with the molecule itself. The data set can be described thus: crystal structure.

Values joined by “and” are separate entries in the source; they are usually repeats but may differ in a detail not shown here. Equal entries are not always repeated.

B1: N-terminal membrane anchoring domain of mycobacterial Wag31 (domain or fragment)
chain: PLTPADVHNVAFSKPPIGKRGYNEDEVDAFLDLVENELTRLIEENSDLRQRINELDQEL
With B1, the “stoichiometry N” value was 2 and 4.
